Here are results for eight molecules from patent US20260209339A1 (RADIANT BIOTHERAPEUTICS, published 2026).

Test [1] has as its target interleukin-6 (IL-6) (UniProt P05231). Nature of the test: BLI (Octet), IL-6 immobilized on the biosensor. (In general: BLI is a label-free optical method that tracks binding on a fibre tip over time.)
For test [2] the target is unchanged. The experiment in a line: ELISA on IL-6. For orientation: ELISA stands for enzyme-linked immunosorbent assay.
For test [3] the target is unchanged. The experiment in a line: cell-based or functional assay.
The target in test [4] is T1, interleukin-6 (IL-6) (UniProt P05231 30-212). Nature of the test: ELISA on IL-6.
Test [5] deals with T1, interleukin-6 (IL-6). The experiment in a line: cell-based or functional assay.
The target in test [6] is bovine serum albumin (BSA) (bovine, UniProt P02769 25-607). The experiment in a line: ELISA.
In test [7] the target is T2, interleukin-11 (IL-11) (UniProt P20809 22-199, limits assumed).
T2 sequence (looked up): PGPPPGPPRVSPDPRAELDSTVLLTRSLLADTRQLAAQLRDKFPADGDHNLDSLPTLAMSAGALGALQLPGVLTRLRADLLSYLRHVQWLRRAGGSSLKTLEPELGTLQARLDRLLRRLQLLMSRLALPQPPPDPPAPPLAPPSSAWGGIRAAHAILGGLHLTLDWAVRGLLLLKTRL
The experiment in a line: ELISA.

Test [8] deals with T1, interleukin-6 (IL-6). Nature of the test: BLI (Octet), IL-6 immobilized on the biosensor.
From the text: This method measures binding reactions at the surface of a fiber optic biosensor functionalized with an immobilized target moiety (e.g., IL-6).
The target of test [9] is T1, interleukin-6 (IL-6). The experiment in a line: cell-based or functional assay. This is another data set of the same source.
For test [10], the target named is T3, interleukin-11 (IL-11) (UniProt P20809).
T3 sequence (looked up): T2 sequence (looked up)
The experiment in a line: ELISA on IL-11.

The target in test [11] is T3, interleukin-11 (IL-11). Nature of the test: cell-based or functional assay.
The target in test [12] is T2, interleukin-11 (IL-11). The experiment in a line: ELISA on IL-11.
Method: Binding of anti-IL-11 Multabodies to IL-11 was assessed using an enzyme-linked immunosorbent assay (ELISA).
Test [13] addresses T2, interleukin-11 (IL-11). Nature of the test: cell-based or functional assay.
In test [14] the target is interleukin-6 (IL-6) (UniProt P05231). Nature of the test: cell-based or functional assay. The source holds these as a separate data set.
The target in test [15] is T1, interleukin-6 (IL-6). Nature of the test: cell-based or functional assay. The source holds these as a separate data set.

Read-outs that look alike come from different tables or passages of the source. Where only a bound is given, the exact number is not on record here.

Chain of interleukin-6 (IL-6) (UniProt P05231) (P05231 30-212 limits assumed): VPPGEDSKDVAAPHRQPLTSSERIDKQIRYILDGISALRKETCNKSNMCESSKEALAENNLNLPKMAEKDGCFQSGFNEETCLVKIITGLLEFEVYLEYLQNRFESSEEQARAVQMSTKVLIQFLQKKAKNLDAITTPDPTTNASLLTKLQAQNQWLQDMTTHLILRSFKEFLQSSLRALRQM
Chain of bovine serum albumin (BSA) (P02769 25-607 limits assumed): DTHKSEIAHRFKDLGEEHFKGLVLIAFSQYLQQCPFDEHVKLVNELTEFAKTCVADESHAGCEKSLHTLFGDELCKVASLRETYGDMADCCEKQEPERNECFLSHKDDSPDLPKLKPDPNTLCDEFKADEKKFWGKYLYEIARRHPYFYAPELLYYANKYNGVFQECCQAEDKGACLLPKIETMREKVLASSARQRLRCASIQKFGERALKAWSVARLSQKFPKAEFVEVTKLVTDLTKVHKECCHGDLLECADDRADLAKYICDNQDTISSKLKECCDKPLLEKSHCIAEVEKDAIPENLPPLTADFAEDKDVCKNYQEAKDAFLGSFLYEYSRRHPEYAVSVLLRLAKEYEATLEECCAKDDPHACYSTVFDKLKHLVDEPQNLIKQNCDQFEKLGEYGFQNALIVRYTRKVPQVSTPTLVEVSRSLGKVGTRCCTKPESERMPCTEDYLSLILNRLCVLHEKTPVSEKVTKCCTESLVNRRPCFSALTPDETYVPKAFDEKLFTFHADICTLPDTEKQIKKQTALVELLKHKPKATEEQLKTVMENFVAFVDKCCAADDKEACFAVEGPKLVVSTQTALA

With “Siltuximab Multabody (MB) (from UniProt P04945 1-108)”, in the test with interleukin-6 (IL-6) [1], the dissociation constant Kd (as a rule, the equilibrium constant for the complex coming apart) was less than 0.001 nM. Also, the EC50 (as a rule, the concentration needed to bring the measured effect to its halfway point) with interleukin-6 (IL-6) [2] was determined as 0.0353 nM. Further, in the test with interleukin-6 (IL-6) [3], the Fold change (IgG vs. Multabody), IL-6 Bioassay IC50 came out at 26 fold; the Fold change, INA-6 proliferation IC50 (IgG against MB) was determined as 9 fold; the IC50 (nM), proliferation of IL-6-dependent INA-6 cells (CellTiter-Glo) stood at 0.67 nM; the IC50 (pM), IL-6 Bioassay (luciferase reporter cells) was 44 pM.

B1: siltuximab immunoglobulin (IgG) (antibody, V domains shown)
VH: EVQLVESGGKLLKPGGSLKLSCAASGFTFSSFAMSWFRQSPEKRLEWVAEISSGGSYTYYPDTVTGRFTISRDNAKNTLYLEMSSLRSEDTAMYYCARGLWGYYALDYWGQGTSVTVSS
VL: QIVLIQSPAIMSASPGEKVTMTCSASSSVSYMYWYQQKPGSSPRLLIYDTSNLASGVPVRFSGSGSGTSYSLTISRMEAEDAATYYCQQWSGYPYTFGGGTKLEIKR
notes: Tested as parental IgG; also called siltuximab IgG; CNTO-328
For B1, the EC50 in the test with interleukin-6 (IL-6) [4] amounted to 0.154 nM. Moreover, the “IC50 (pM), IL-6 Bioassay (luciferase reporter cells)” value (from here on “IC50 (pM), IL-6 Bioassay”) with interleukin-6 (IL-6) [5] turned out to be 1150 pM. Further, the binding result (in test [6]; with interleukin-11 (IL-11) [7]) was “no binding” throughout. Also, the Kd with interleukin-6 (IL-6) [8] was less than 0.001 nM. Also, the “IC50 (nM), proliferation of IL-6-dependent INA-6 cells (CellTiter-Glo)” value with interleukin-6 (IL-6) [9] came to 5.88 nM.

B2: anti-IL-11 Multabody (MB), source antibody TPP-29536 (protein, part only; not given: Fab constants, linkers, ferritin carriers, not shown: another chain or arm of the molecule; a dimerising Fc or GST; large carriers; small tags and cut ends)
VH: EVQLLESGGGLVQPGGSLRLSCAASGFTFSSYGMHWVRQAPGKGLEWVAVISYDGSYKYYADSVKGRFTISRDNSKNTLYLQMNSLRAEDTAVYYCAAGVPDYWGQGTLVTVSS
VL: QSVLTQPPSASGTPGQRVTISCSGSSSNIGSDYDVHWYQQLPGTAPKLLIYSNEERPSGVPDRFSGSKSGTSASLAISGLRSEDEADYYCSAWDSSLSGPVFGGGTKLTVL
Consider B2, for which, in the test with interleukin-11 (IL-11) [10], the EC50 came out at 0.659 nM and the fold better binding than the parental IgG control was 3 to 4 fold. In the test with interleukin-11 (IL-11) [11], this molecule yielded a Fold change, IL-11-dependent pSTAT3/STAT3 IC50 (IgG against MB), Panc-1 cells of 6 fold and an IC50 (nM), IL-11-dependent pSTAT3/STAT3 (Meso Scale Discovery), Panc-1 cells of 0.13 nM.

B3: TPP-29536 IgG (antibody, V domains shown)
VH: B2 VH
VL: B2 VL
notes: Tested as parental IgG; also called anti-IL-11 IgG; parental IgG control
For B3, the EC50 with interleukin-11 (IL-11) [12] turned out to be 2.71 nM. In the test with interleukin-11 (IL-11) [13], the “IC50 (nM), IL-11-dependent pSTAT3/STAT3 (Meso Scale Discovery), Panc-1 cells” value worked out at 0.79 nM.

B4: Olokizumab Multabody (MB) (protein, part only; not given: Fab constants, linkers, ferritin carriers, not shown: another chain or arm of the molecule; a dimerising Fc or GST; large carriers; small tags and cut ends)
VH: EVQLVESGGGLVQPGGSLRLSCAASGFNFNDYFMNWVRQAPGKGLEWVAQMRNKNYQYGTYYAESLEGRFTISRDDSKNSLYLQMNSLKTEDTAVYYCARESYYGFTSYWGQGTLVTVSS
VL: DIQMTQSPSSLSASVGDRVTITCQASQDIGISLSWYQQKPGKAPKLLIYNANNLADGVPSRFSGSGSGTDFTLTISSLQPEDFATYYCLQHNSAPYTFGQGTKLEIK
As to B4, the Kd with interleukin-6 (IL-6) [1] was less than 0.001 nM. The molecule further displayed an EC50 in the test with interleukin-6 (IL-6) [2] of 0.0454 nM. In the test with interleukin-6 (IL-6) [14], this molecule registered a Fold change (IgG vs. Multabody), IL-6 Bioassay IC50 of 60 fold; a Fold change (IgG/MB), IL-6-induced pSTAT3/STAT3 IC50, HCT-15 cells of 7 fold; a Fold change (IgG/MB), IL-6-induced pSTAT3/STAT3 IC50, THP-1 cells of 8 fold; a Fold change, INA-6 proliferation IC50 (IgG against MB) of 16 fold. For the same molecule, in the test with interleukin-6 (IL-6) [14], the IC50 (nM), IL-6-induced pSTAT3/STAT3 (Meso Scale Discovery), HCT-15 cells worked out at 0.03 nM; the IC50 (nM), IL-6-induced pSTAT3/STAT3 (Meso Scale Discovery), THP-1 cells is 0.06 nM; the IC50 (nM), proliferation of IL-6-dependent INA-6 cells (CellTiter-Glo) came out at 0.33 nM; the IC50 (pM), IL-6 Bioassay (luciferase reporter cells) was found to be 9.4 pM.

B5: olokizumab IgG (antibody, V domains shown)
VH: B4 VH
VL: DIQMTQSPSSLSASVGDRVTITCQASQDIGISLSWYQQKPGKAPKLLIYNANNLADGVPSRFSGSGSGTDFTLTISSLQPEDFATYYCLQHNSAPYTFGQGTKLEIKR
notes: Tested as parental IgG; also called CDP6038
Turning to B5, in the test with interleukin-6 (IL-6) [4], the EC50 worked out at 0.201 nM. Moreover, in the test with interleukin-6 (IL-6) [5], the “IC50 (pM), IL-6 Bioassay” value came out at 566 pM. For the same molecule, the binding result in test [6] was “no binding”. The binding result in the test with interleukin-11 (IL-11) [7] is “no binding”. For the same molecule, the Kd with interleukin-6 (IL-6) [8] is less than 0.001 nM. Moreover, in the test with interleukin-6 (IL-6) [15], the “IC50 (nM), IL-6-induced pSTAT3/STAT3 (Meso Scale Discovery), HCT-15 cells” value stood at 0.2 nM and the “IC50 (nM), IL-6-induced pSTAT3/STAT3 (Meso Scale Discovery), THP-1 cells” value was 0.48 nM. In addition, the “IC50 (nM), proliferation of IL-6-dependent INA-6 cells (CellTiter-Glo)” value with interleukin-6 (IL-6) [9] stood at 5.29 nM.

B6: Clazakizumab Multabody (MB) (protein, part only; not given: Fab constants, linkers, ferritin carriers, not shown: another chain or arm of the molecule; a dimerising Fc or GST; large carriers; small tags and cut ends)
VH: EVQLVESGGGLVQPGGSLRLSCAASGFSLSNYYVTWVRQAPGKGLEWVGIIYGSDETAYATSAIGRFTISRDNSKNTLYLQMNSLRAEDTAVYYCARDDSSDWDAKFNLWGQGTLVTVSS
VL: AIQMTQSPSSLSASVGDRVTITCQASQSINNELSWYQQKPGKAPKLLIYRASTLASGVPSRFSGSGSGTDFTLTISSLQPDDFATYYCQQGYSLRNIDNAFGGGTKVEIK
In the test with interleukin-6 (IL-6) [1], B6 gave a Kd of less than 0.001 nM. The EC50 with interleukin-6 (IL-6) [2] is 0.0543 nM. In the test with interleukin-6 (IL-6) [14], this molecule registered a Fold change (IgG vs. Multabody), IL-6 Bioassay IC50 of 6 fold and an IC50 (pM), IL-6 Bioassay (luciferase reporter cells) of 100 pM.

B7: clazakizumab IgG (antibody, V domains shown)
VH: B6 VH
VL: AIQMTQSPSSLSASVGDRVTITCQASQSINNELSWYQQKPGKAPKLLIYRASTLASGVPSRFSGSGSGTDFTLTISSLQPDDFATYYCQQGYSLRNIDNAFGGGTKVEIKR
notes: Tested as parental IgG
In the case of B7, in the test with interleukin-6 (IL-6) [4], the EC50 came out at 0.176 nM. The “IC50 (pM), IL-6 Bioassay” value in the test with interleukin-6 (IL-6) [5] turned out to be 604 pM. The binding result (in test [6]; with interleukin-11 (IL-11) [7]) was “no binding” throughout. Also, the Kd in the test with interleukin-6 (IL-6) [8] was less than 0.001 nM.
